± gives the uncertainty stated by the source.
assay: amyloid nucleation score (Sup35N fusion, yeast selection) (log enrichment); library NNK2; higher = more nucleation; inactive = no reads after selection
How it was run: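 Nucleation score is defined as the DiMSum log enrichment of output over input reads, with centring on the mode score of non-aggregating sequences. A minimum of 100 input reads was required for each sequence. Reads came from Illumina sequencing of plasmid inserts from psi-negative yeast expressing Sup35N fused to peptides of 20 random codons, induced with 100 μM copper sulfate for 24 hours and grown 7 days at 30°C on medium lacking adenine and uracil.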

Row | Substance | amyloid nucleation score
1 | PSCDVFVKIRLHFAFVKNFI | inactive
2 | PSDTYNNDG | 0.751 ± 0.58
3 | PSGFVVLGSLCGMIFVRVTK | -0.974 ± 0.49
4 | PSLRV | 1.08 ± 0.42
5 | PSMIYFYRGSSLFASWGFLI | inactive
6 | PSNKLKWLCLDV | 0.576 ± 0.43
7 | PSRVSVSYM | 2.69 ± 0.076
8 | PSVCKWCYMKCRRRTCFSQL | inactive
9 | PSVDCSEIKPIWNLVKYFLI | -0.571 ± 0.26
10 | PSWSAKTCACWNKAYPIVEI | 0.633 ± 0.47
11 | PSYDVCSMDCLDEKDGFMWL | 0.25 ± 0.62
12 | PTLVLKKAVEPTQENGSLTV | 5.767 ± 0.051
13 | PTMEPVVHITLDCVYKDF | inactive
14 | PTRIFSCSRSGGWYYL | -0.831 ± 0.32
15 | PTRLTVKVMCLKPEPLVWKL | 6.476 ± 0.042
16 | PTYFWKQQCWVHYICWIMSY | -1.15 ± 0.35
17 | PVNPQEFLSALSSRYEVKSW | -0.095 ± 1.1
18 | PWSSHCSCVFNNKDLILGNT | -0.21 ± 0.79
19 | PWVNRCKELCMFVLGVDRGG | -0.588 ± 1.1
20 | PYALWGIRESHLFQKCWSGM | 3.33 ± 0.099
21 | PYELCDRTVRMSFWVTVWGH | 0.281 ± 0.49
22 | PYQLRVSLTLMLISGSLDIY | 0.47 ± 0.5
23 | QCGMIMRSSLKSGATCFLDS | 0.124 ± 0.61
24 | QCLHSWDWLKSWFVFVGRGE | 3.88 ± 0.066
25 | QCLYWV | inactive

Row | Substance | amyloid nucleation score
26 | QCMTKKLEISQY | -0.492 ± 1
27 | QDVFCLSGLNSHCK | -1.45 ± 0.78
28 | QENFCEYFFDRSITSWWR | inactive
29 | QFARGPSGSIMEQVLIDGDV | 0.277 ± 0.64
30 | QFASISICYKSSIPNDCNDV | 1.12 ± 0.2
31 | QFNKIDWMHKMFTSSRVNMS | -0.166 ± 0.31
32 | QFSCRCN | 0.011 ± 0.79
33 | QFSLLDHITCQPLPTLFLS | 7.91 ± 0.065
34 | QFSLMRAIFMWASPRSWLLD | inactive
35 | QFWVPTLEAWSWTSAFPYMP | -0.536 ± 1.1
36 | QGYAYMCTGSFFFSLLQVLS | 3.79 ± 0.1
37 | QIDLL | -1.36 ± 1.1
38 | QIYCVSPLSRHWYFARYGVT | 0.78 ± 0.32
39 | QKGHSRLQPWSLSPYVYRPL | 0.556 ± 0.42
40 | QLCAMKMDSRIFCVSCFTML | 7.049 ± 0.056
41 | QLCLLCFLYMC | 3.16 ± 0.16
42 | QLESRRDDHRVHESADGSA | 0.466 ± 0.33
43 | QLFFRYYCEAGDVCIFGHIA | 3.32 ± 0.099
44 | QLFMNPDWNKRHYNELYSSG | inactive
45 | QLFVMADNVRESSKTLRTIW | -0.513 ± 0.35
46 | QLGIGFFGRKWDGHL | 2.79 ± 0.16
47 | QLGLLFFGTVLM | 1.87 ± 0.14
48 | QLNFYNQTQCVLGEVTTLN | -0.476 ± 0.36
49 | QLTQYQSKTRTMCRKQERTV | 1.88 ± 0.43
50 | QLYKRSE | 0.256 ± 0.27

Row | Substance | amyloid nucleation score
51 | QMGCWLGLLVDSLYLSWLVT | -0.2 ± 0.43
52 | QMIFGYQHRAALDIMNGVPD | inactive
53 | QMMLLTV | -0.214 ± 1.1
54 | QMYATSFNIDCVLFLSLFEM | 6.27 ± 0.07
55 | QNESHIH | 6.31 ± 0.079
56 | QNLCDCCKYQICSVLFMGHA | 4.33 ± 0.082
57 | QNNKILFWQ | 0.039 ± 0.31
58 | QRARTRYGLRSLSYSAYIWS | 0.807 ± 0.17
59 | QRFRHRKTQISVFS | -0.876 ± 1.1
60 | QSFFLN | inactive
61 | QSIRFVFLPYELGTYHGDEG | -0.241 ± 0.24
62 | QSPSIRTCTYYGTYRRLKKG | inactive
63 | QSYRVPKLFMNAAE | 0.197 ± 0.57
64 | QTDMII | inactive
65 | QTRTQEFFRSFNKVFTQ | 2.59 ± 0.061
66 | QTSYMDYKYRMGFLS | -0.69 ± 0.63
67 | QTYIFFICLVVGMYIVCGKH | -0.17 ± 0.45
68 | QTYMPTFCYITFLECWSDKG | 7.685 ± 0.035
69 | QVAIPHHTRIETASARRVHT | 1.09 ± 0.51
70 | QVGRSSQCEDTVVFIRVRLW | 3.77 ± 0.066
71 | QVYCQAVNYKENRVYFMGVP | 5.2 ± 0.054
72 | QVYLS | -1.17 ± 0.62
73 | QWQGQHLT | -1.4 ± 1
74 | QWSVINRTS | 1.54 ± 0.31
75 | QWVDQVYIAETIVPLSNKVV | -0.398 ± 1

Row | Substance | amyloid nucleation score
76 | QYGCMEYRHNKCNQREVCRY | 0.281 ± 0.5
77 | QYMLLMMC | 0.671 ± 0.6
78 | QYMYLYIKRMMYSSTKKF | inactive
79 | RAANYCGLKQAWSGFKRCVA | 0.496 ± 0.36
80 | RADSIFDTI | -0.721 ± 0.61
81 | RADTRDSGVVEACKGWSHEE | 0.451 ± 0.34
82 | RAMVPHHNADGCGLLQDTQ | 1.14 ± 0.38
83 | RAMYECF | 0.604 ± 0.41
84 | RARLKTMRPGSCSRARGWCG | 0.883 ± 0.33
85 | RASARLVCTFYVLTERG | 4.17 ± 0.064
86 | RAVEMVYCKLRMSQDGHLRW | 5.482 ± 0.048
87 | RAWCYTGMRGDMESW | -0.447 ± 0.41
88 | RCAMRVSARMSRSTGISRLR | 1.64 ± 0.15
89 | RCKAAGCIHLVFFVCRDACC | 0.605 ± 0.66
90 | RCNQLIWTASDNWYYMWTTV | 1.8 ± 0.1
91 | RCNWTSNFFQYMYKNRPNNG | inactive
92 | RCREWYMR | -0.568 ± 0.63
93 | RCSVVNWDNHVMLALDRVGY | inactive
94 | RDAGSGREL | inactive
95 | RDCICSVYPFAVLMGSQPLA | 9.086 ± 0.063
96 | RDCIRAVSCVIENTGPSAYE | 0.049 ± 0.56
97 | RDGYRSGYAESMVGVWFRLK | 0.662 ± 0.81
98 | RDIFILYD | inactive
99 | RDLEPYLHIWSLIVSARV | -0.014 ± 0.65
100 | RDLLIGDDI | -0.983 ± 0.44

Row | Substance | amyloid nucleation score
101 | RDLSTGSPILEFHRCTRISG | -0.172 ± 0.76
102 | RDSFQCSY | -0.939 ± 0.54
103 | RDWQYRIYVQCNR | 2.17 ± 0.14
104 | REAARRLGEKPNIAVGFDAG | 0.559 ± 0.44
105 | REGPCGELGELPVLKRRGKH | 0.986 ± 0.41
106 | RFDWRFCVVNRPGGKWLVVR | 0.824 ± 0.29
107 | RFFCLWFSWKNLGFNVKRAV | 5.02 ± 0.082
108 | RFGGSVYARGERL | -0.159 ± 0.46
109 | RFGIGSLRSTSHVAGLMVMS | 0.733 ± 0.44
110 | RFILLFTCGKGFFMHTCSRG | 3.86 ± 0.11
111 | RFIMSRYALEGAESTLMKHN | 3.53 ± 0.1
112 | RFKWK | 3.67 ± 0.11
113 | RFQLVSAMAFTYMVAR | -0.211 ± 0.56
114 | RFRRSVFMLMHGWRSTVFIV | 1.07 ± 0.34
115 | RFSCLSELSFLYFGSH | 5.059 ± 0.034
116 | RFSELSHK | -0.144 ± 0.26
117 | RFVKTGYTYDLVGTVLHCLS | 5.97 ± 0.054
118 | RFYGVY | inactive
119 | RFYIPLSYFMSEGDRSCKFI | -0.642 ± 0.61
120 | RGALALLVRDAMFFCSLSGF | 4.41 ± 0.1
121 | RGANNGMCYFMTRRKWLLMV | 0.813 ± 0.56
122 | RGFCYNIT | 0.305 ± 0.37
123 | RGGSIIYHALVRVVFFLSVY | -1.01 ± 0.64
124 | RGIKNVWNL | 0.461 ± 0.54
125 | RGLTKLSVLFRQNKESYNIV | -0.521 ± 0.76

Row | Substance | amyloid nucleation score
126 | RGMTRVVFTVMLLRLWYSQS | 0.659 ± 0.21
127 | RGMWRCHNG | 1.49 ± 0.37
128 | RGNHNHGLWNPKNSMVMWEG | 0.062 ± 0.48
129 | RGQTMNHALRAHW | 0.639 ± 0.42
130 | RGSVVLNSVWVMLDMYCLLP | 1.82 ± 0.28
131 | RGVCLNNLMWGTLGTRKALL | -0.797 ± 1
132 | RGVDYVLSCL | -1.21 ± 0.61
133 | RGVLYAKVL | 0.808 ± 0.33
134 | RGVVGLDSIRWPSFGAVMKF | -0.757 ± 0.48
135 | RHDSCMCFMTDQL | -0.864 ± 0.44
136 | RHKFAMMACVTYNGDVGVMT | 1.14 ± 0.21
137 | RHNKNRSVCSYRSKYAKKYV | -0.208 ± 0.74
138 | RHRCSI | -0.059 ± 0.39
139 | RIEDFF | 1.19 ± 0.68
140 | RIGDRSCSVRKEHKDAQWSI | 0.196 ± 0.77
141 | RIGLMNL | 3.38 ± 0.11
142 | RIHFGFRMMMCRDIRIFTSQ | 6.06 ± 0.064
143 | RIIKYIMNGRRFVVLWRVFS | 5.342 ± 0.052
144 | RIMPTLLKIPYLWYQSLSCD | -0.081 ± 0.22
145 | RINVPDVRMDPNYQIHF | -1.02 ± 0.36
146 | RIQWKDGYHVARRVFIGNTG | -0.449 ± 0.63
147 | RIRCIVGSVPCMAASKHDGR | 0.783 ± 0.22
148 | RIRYGLKVCSMVDGMLGRDW | 0.807 ± 0.29
149 | RKIYV | -0.139 ± 0.55
150 | RKQCNKFGVWDQI | 0.214 ± 0.5

Row | Substance | amyloid nucleation score
151 | RLCLRDQYSFGQIVDYKCFD | inactive
152 | RLDNIIVAERCTSLRESRFG | -0.047 ± 1.1
153 | RLDRVIFY | 1.85 ± 0.099
154 | RLFCSAVAH | 0.308 ± 0.44
155 | RLFDRSVLPLGLWVRCKIHW | 0.28 ± 0.61
156 | RLIGLVSRVEHVYIAVKRWE | 0.543 ± 0.34
157 | RLLMGPVNSFGR | 3.57 ± 0.07
158 | RLLRQGDFGVTENRFLFRDI | -0.502 ± 0.79
159 | RLNAMEESIKSNIYSFWSFY | inactive
160 | RLNRSMSSHHDRRHLEWSLS | 0.235 ± 0.19
161 | RLNVISIQNAIMRVVRTKRF | 3.61 ± 0.12
162 | RLNVKDYFCYIAQESKTTDR | 4.76 ± 0.083
163 | RLRIMYSTLLATGMV | 0.178 ± 0.5
164 | RLRMSMIISLINLRLCGLML | 1.03 ± 0.53
165 | RLRTKCYFNCCNGHYLEFGG | 9.489 ± 0.067
166 | RLSLGLYINALRC | 1.01 ± 0.51
167 | RLSVLD | 1.34 ± 0.21
168 | RLTDLVSMVSLNPLYFMWSS | -0.08 ± 0.3
169 | RLVPISKNRVGMNWSASLSL | 0.012 ± 0.15
170 | RLVSKEATCPR | -0.058 ± 0.54
171 | RLYVKWSNSISDSRSLCVP | 0.208 ± 0.16
172 | RMDVSYLAFVWSHN | 3.5 ± 0.056
